We go through one molecule from patent publication US20260132208A1 (DOMAIN THERAPEUTICS, published 2026).

For experiment [1], the target named is T1, pm2 (sulfated tyrosine(s) among Y15, Y16, Y17; which ones is not told (the underlining of Table 1 is lost in the text)).
T1 construct: also called sulfated CCR8 N-terminal peptide pm2
Nature of the experiment: ELISA on coated peptide [cont.]. Summed up:
(§1)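 Each antibody is tested at 1 μg/mL plus a 1/10 dilution against peptide coated at 500 ng/ml in carbonate/bicarbonate buffer. Binding runs 90 min at room temperature. After washing, TMB substrate is added for 15 min and OD gives the signal.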
Background: An ELISA detects its analyte on a solid surface through an enzyme-linked reagent.

Experiment [2] concerns the target T2, pwt1 (none (unmodified peptide)).
T2 construct: also called unmodified CCR8 N-terminal peptide
Nature of the experiment: ELISA on coated peptide [cont.]. Put shortly: as §1

T2 sequence (peptide, as listed by the source): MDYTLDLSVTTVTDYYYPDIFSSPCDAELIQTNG
T1 sequence (peptide, as listed by the source): as above

B1: anti-CCR8 mAb 1-20 (antibody, human IgG1, kappa)
heavy: not shown
light: DIVMTQAAPSLSVTPGESASISCTSSKSLLHSNGNTYLYWFLQKPGQSPQLLIYRMSNLASGVPDRFSGSGSGTAFTLKISRVEAEDVGVYYCMQHREYPFTFGSGTKLEIKRTVAAPSVFIFPPSDEQLKSGTASVVCLLNNFYPREAKVQWKVDNALQSGNSQESVTEQDSKDSTYSLSSTLTLSKADYEKHKVYACEVTHQGLSSPVTKSFNRGEC
notes: Humanized mAb, human IgG1 / kappa
For the molecule B1, the binding result in experiment [1] and in experiment [2] was “binds” in each case.
